For this experiment, the target named is T1, Replication protein A (RPA), consisting of Rfa1, Rfa2 and Rfa3 (budding yeast, UniProt P22336 1-621; P26754 1-273; P26755 1-122).
T1 construct: Rfa1, subunit of budding yeast RPA; Rfa2, subunit of budding yeast RPA; Rfa3, subunit of budding yeast RPA; also called budding yeast RPA protein; source: purified as described [83]; copies: + +
Description: pull-down; streptavidin beads coated with biotinylated oligonucleotide bio-oligo(dN)80 (5 pmol), incubated with RPA (1 pmol) for 30 min, then with Mec1-Ddc2, Mec1-Ddc2-S4, MBP, MBP-Ddc2 or MBP-Ddc2-S4 (0.5 pmol) for 30 min; buffer B (20 mM Tris-HCl pH 7.5, 100 mM NaCl, 0.01% NP-40, 10% glycerol, 100 μg/ml BSA), 30°C; immunoblot of captured proteins. Particulars: both partners purified.

T1 sequence (P22336 whole entry, chain 1 of 3): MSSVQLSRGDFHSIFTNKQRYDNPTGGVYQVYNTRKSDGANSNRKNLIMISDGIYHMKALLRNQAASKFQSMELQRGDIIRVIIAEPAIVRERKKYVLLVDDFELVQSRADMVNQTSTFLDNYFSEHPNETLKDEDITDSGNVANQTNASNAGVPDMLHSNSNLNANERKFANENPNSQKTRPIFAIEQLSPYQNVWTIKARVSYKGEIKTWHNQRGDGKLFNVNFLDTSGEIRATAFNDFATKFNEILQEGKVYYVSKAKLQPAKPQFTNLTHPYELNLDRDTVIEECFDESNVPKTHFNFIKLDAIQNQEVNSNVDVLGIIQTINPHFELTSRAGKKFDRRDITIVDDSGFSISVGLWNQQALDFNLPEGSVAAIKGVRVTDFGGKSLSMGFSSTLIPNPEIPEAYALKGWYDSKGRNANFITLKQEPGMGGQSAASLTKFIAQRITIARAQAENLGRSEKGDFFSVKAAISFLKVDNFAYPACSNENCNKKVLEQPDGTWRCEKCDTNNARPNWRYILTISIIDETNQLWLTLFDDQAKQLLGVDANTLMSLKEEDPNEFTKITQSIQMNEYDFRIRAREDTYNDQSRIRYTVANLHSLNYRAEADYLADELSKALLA
T1 sequence (P26754 whole entry, chain 2 of 3): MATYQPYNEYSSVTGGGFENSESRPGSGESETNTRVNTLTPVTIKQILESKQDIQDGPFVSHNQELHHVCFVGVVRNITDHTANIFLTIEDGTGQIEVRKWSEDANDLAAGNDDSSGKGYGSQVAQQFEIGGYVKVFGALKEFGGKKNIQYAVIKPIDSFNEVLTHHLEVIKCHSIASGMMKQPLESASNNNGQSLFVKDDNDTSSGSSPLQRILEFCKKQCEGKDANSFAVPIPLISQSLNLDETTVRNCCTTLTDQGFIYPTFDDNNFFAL
T1 sequence (P26755 whole entry, chain 3 of 3): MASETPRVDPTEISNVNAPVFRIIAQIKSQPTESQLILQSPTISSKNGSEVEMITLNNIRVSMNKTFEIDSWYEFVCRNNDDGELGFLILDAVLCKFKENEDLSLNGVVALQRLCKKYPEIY

B1: MBP-Ddc2 (natural protein, budding yeast, UniProt Q04377 1-747, looked up)
chain: MRRETVGEFSSDDDDDILLELGTRPPRFTQIPPSSAALQTQIPTTLEVTTTTLNNKQSKNDNQLVNQLNKAQGEASMLRDKINFLNIEREKEKNIQAVKVNELQVKHLQELAKLKQELQKLEDEKKFLQMEARGKSKREVITNVKPPSTTLSTNTNTITPDSSSVAIEAKPQSPQSKKRKISDNLLKKNMVPLNPNRIIPDETSLFLESILLHQIIGADLSTIEILNRLKLDYITEFKFKNFVIAKGAPIGKSIVSLLLRCKKTLTLDRFIDTLLEDIAVLIKEISVHPNESKLAVPFLVALMYQIVQFRPSATHNLALKDCFLFICDLIRIYHHVLKVPIHESNMNLHVEPQIFQYELIDYLIISYSFDLLEGILRVLQSHPKQTYMEFFDENILKSFEFVYKLALTISYKPMVNVIFSAVEVVNIITSIILNMDNSSDLKSLISGSWWRDCITRLYALLEKEIKSGDVYNENVDTTTLHMSKYHDFFGLIRNIGDNELGGLISKLIYTDRLQSVPRVISKEDIGMDSDKFTAPIIGYKMEKWLLKLKDEVLNIFENLLMIYGDDATIVNGEMLIHSSKFLSREQALMIERYVGQDSPNLDLRCHLIEHTLTIIYRLWKDHFKQLREEQIKQVESQLIMSLWRFLVCQTETVTANEREMRDHRHLVDSLHDLTIKDQASYYEDAFEDLPEYIEEELKMQLNKRTGRIMQVKYDEKFQEMARTILESKSFDLTTLEEADSLYISMGL
notes: Ddc2 (ATRIP homolog), budding yeast; also called MBP-fused Ddc2; pMAL-Ddc2; source: E. coli Rosetta, purified (amylose resin)
As for B1, the binding result is “binds”.

B2: MBP-Ddc2-S4 (natural protein, budding yeast, UniProt Q04377 1-747, looked up)
chain: MRRETVGEFSSDDDDDILLELGTRPPRFTQIPPSSAALQTQIPTTLEVTTTTLNNKQSKNDNQLVNQLNKAQGEASMLRDKINFLNIEREKEKNIQAVKVNELQVKHLQELAKLKQELQKLEDEKKFLQMEARGKSKREVITNVKPPSTTLSTNTNTITPDSSSVAIEAKPQSPQSKKRKISDNLLKKNMVPLNPNRIIPDETSLFLESILLHQIIGADLSTIEILNRLKLDYITEFKFKNFVIAKGAPIGKSIVSLLLRCKETLTLDRFIDTLLEDIAVLIKEISVHPNESKLAVPFLVALMYQIVQFRPSATHNLALKDCFLFICDLIRIYHHVLKVPIHESNMNLHVEPQIFQYELIDYLIISYSFDLLEGILRVLQSYPKQTYMEFFDENILKSFEFVYKLALTISYKPMVNVIFSAVEVVNIITSIILNMDNSSDLKSLISGSWWRDCITRLYALLEKEIKSGDVYNENVDTTTLHMSKYHDFFGLIRNIGDNELGGLISKLIYTDRLQSVPRVISKEDIGMDSDKFTAPIIGYKMEKWLLKLKDEVLNIFENLLMIYGDDATIVNGEMLIHSSKFLSREQALMIERYVGQDSPNLDLRCHLIEHTLTIIYRLWKDHFKQLREEQIKQVESQLIMSLWRFLVCQTETVTANEREMRDHRHLVDSLHDLTIKDQASYYEDAFEDLPEYIEEELKMQLNKRTGRIMQVKYDEKFQEMARTILESKSFDLTTLEEADSLYISMGL
notes: Ddc2 (ATRIP homolog), budding yeast, with the two ddc2-S4 substitutions; also called MBP-fused Ddc2-S4; pMAL-Ddc2-S4; source: E. coli Rosetta, purified (amylose resin)
As for B2, the binding result was “binds”.
